Measured values as given in paper PMC12586603.

Target: T1, 3xFLAG-HSF1, Q00613
T1 chain: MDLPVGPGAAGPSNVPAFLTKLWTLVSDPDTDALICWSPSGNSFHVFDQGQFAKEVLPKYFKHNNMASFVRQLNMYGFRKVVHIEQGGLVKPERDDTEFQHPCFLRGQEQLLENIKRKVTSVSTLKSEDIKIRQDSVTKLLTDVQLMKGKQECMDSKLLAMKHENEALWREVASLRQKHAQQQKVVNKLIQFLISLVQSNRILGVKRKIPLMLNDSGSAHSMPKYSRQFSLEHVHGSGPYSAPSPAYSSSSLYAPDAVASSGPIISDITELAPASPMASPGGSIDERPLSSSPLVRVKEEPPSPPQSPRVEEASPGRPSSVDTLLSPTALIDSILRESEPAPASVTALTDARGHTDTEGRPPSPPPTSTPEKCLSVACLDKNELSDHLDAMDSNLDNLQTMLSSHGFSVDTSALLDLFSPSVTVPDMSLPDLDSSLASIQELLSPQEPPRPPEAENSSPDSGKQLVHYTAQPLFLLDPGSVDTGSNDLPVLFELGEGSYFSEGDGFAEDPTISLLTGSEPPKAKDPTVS
Experiment: cross-linking; cell extracts from transfected 293T cells, in vitro cross-linking with 2 mM ethylene glycol bis(succinimidyl succinate) (EGS), immunoblot; with or without DBC1 overexpression
Settings: remark: other sources report otherwise

B1: 3xFLAG-HSF1, Q00613 1-529 (natural protein)
chain: T1 chain
stoichiometry N: 3
